In the assay the target is T1, B-cell maturation antigen (BCMA) (human, UniProt Q02223 1-184).
T1 sequence (looked up): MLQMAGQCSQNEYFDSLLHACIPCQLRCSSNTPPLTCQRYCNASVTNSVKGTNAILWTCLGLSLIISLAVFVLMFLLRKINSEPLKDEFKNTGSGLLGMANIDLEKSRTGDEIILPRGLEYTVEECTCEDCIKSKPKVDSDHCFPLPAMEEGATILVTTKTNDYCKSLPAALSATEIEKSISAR
As to the kind of experiment: cell-based or functional assay.

The source of these data is patent publication US20230192878A1 (published 2023).

B1: PF-06863135 (bispecific antibody, human IgG2)
heavy 1: EVQLVESGGGLVQPGGSLRLSCAASGFTFSDYYMTWVRQAPGKGLEWVAFIRNRARGYTSDHNPSVKGRFTISRDNAKNSLYLQMNSLRAEDTAVYYCARDRPSYYVLDYWGQGTTVTVSSASTKGPSVFPLAPCSRSTSESTAALGCLVKDYFPEPVTVSWNSGALTSGVHTFPAVLQSSGLYSLSSVVTVPSSNFGTQTYTCNVDHKPSNTKVDKTVERKCRVRCPRCPAPPVAGPSVFLFPPKPKDTLMISRTPEVTCVVVAVSHEDPEVQFNWYVDGVEVHNAKTKPREEQFNSTFRVVSVLTVVHQDWLNGKEYKCKVSNKGLPSSIEKTISKTKGQPREPQVYTLPPSREEMTKNQVSLTCLVKGFYPSDIAVEWESNGQPENNYKTTPPMLDSDGSFFLYSRLTVDKSRWQQGNVFSCSVMHEALHNHYTQKSLSLSPGK
light 1: not shown
heavy 2: EVQLLESGGGLVQPGGSLRLSCAASGFTFSSYPMSWVRQAPGKGLEWVSAIGGSGGSLPYADIVKGRFTISRDNSKNTLYLQMNSLRAEDTAVYYCARYWPMDIWGQGTLVTVSSASTKGPSVFPLAPCSRSTSESTAALGCLVKDYFPEPVTVSWNSGALTSGVHTFPAVLQSSGLYSLSSVVTVPSSNFGTQTYTCNVDHKPSNTKVDKTVERKCEVECPECPAPPVAGPSVFLFPPKPKDTLMISRTPEVTCVVVAVSHEDPEVQFNWYVDGVEVHNAKTKPREEQFNSTFRVVSVLTVVHQDWLNGKEYKCKVSNKGLPSSIEKTISKTKGQPREPQVYTLPPSREEMTKNQVSLTCEVKGFYPSDIAVEWESNGQPENNYKTTPPMLDSDGSFFLYSKLTVDKSRWQQGNVFSCSVMHEALHNHYTQKSLSLSPGK
light 2: EIVLTQSPGTLSLSPGERATLSCRASQSVSSSYLAWYQQKPGQAPRLLMYDASIRATGIPDRFSGSGSGTDFTLTISRLEPEDFAVYYCQQYQSWPLTFGQGTKVEIKRTVAAPSVFIFPPSDEQLKSGTASVVCLLNNFYPREAKVQWKVDNALQSGNSQESVTEQDSKDSTYSLSSTLTLSKADYEKHKVYACEVTHQGLSSPVTKSFNRGEC
On to B1, for which the “EC50 (nM) of cell viability, H929-Luc co-cultured with human CD3+ T cells, 72 hr, with GSI (nirogacestat)” value was found to be 0.0055 nM; the “EC50 (nM) of cell viability, H929-Luc co-cultured with human CD3+ T cells, 72 hr, without GSI” value was determined as 0.167 nM; the “EC50 (nM) of cell viability, Molp8-Luc co-cultured with human CD3+ T cells, 72 hr, with GSI (nirogacestat)” value was 0.0202 nM; the “EC50 (nM) of cell viability, Molp8-Luc co-cultured with human CD3+ T cells, 72 hr, without GSI” value is 0.108 nM. Besides, the “EC50 (nM) of cell viability, OPM2-Luc co-cultured with human CD3+ T cells, 72 hr, with GSI (nirogacestat)” value is 0.0033 nM; the “EC50 (nM) of cell viability, OPM2-Luc co-cultured with human CD3+ T cells, 72 hr, without GSI” value turned out to be 0.0528 nM; the “EC50 (nM) of cell viability, RPMI8226-Luc co-cultured with human CD3+ T cells, 72 hr, with GSI (nirogacestat)” value came to 0.0017 nM; the “EC50 (nM) of cell viability, RPMI8226-Luc co-cultured with human CD3+ T cells, 72 hr, without GSI” value amounted to 0.0092 nM.
